# Measured values: US20200317768A1 (published 2020)
# T1: human FcγRIIaH extracellular domain, C-terminal His-tag (human, UniProt P12318 34-217)
# T1 construct: Soluble extracellular domain expressed in FreeStyle 293 cells; also called FcgRIIaH; human FcγRIIa (type H); not shown: His-tag added to the C-terminus
# T1 sequence: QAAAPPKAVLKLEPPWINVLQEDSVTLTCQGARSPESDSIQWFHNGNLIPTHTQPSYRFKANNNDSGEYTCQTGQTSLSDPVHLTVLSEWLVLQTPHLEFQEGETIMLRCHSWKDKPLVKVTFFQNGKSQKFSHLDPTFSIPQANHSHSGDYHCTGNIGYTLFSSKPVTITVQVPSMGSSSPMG
# T2: human FcγRIIaR extracellular domain, C-terminal His-tag (human, UniProt P12318 34-217)
# T2 construct: Soluble extracellular domain expressed in FreeStyle 293 cells; also called FcgRIIaR; human FcγRIIa (type R); not shown: His-tag added to the C-terminus
# T2 chain: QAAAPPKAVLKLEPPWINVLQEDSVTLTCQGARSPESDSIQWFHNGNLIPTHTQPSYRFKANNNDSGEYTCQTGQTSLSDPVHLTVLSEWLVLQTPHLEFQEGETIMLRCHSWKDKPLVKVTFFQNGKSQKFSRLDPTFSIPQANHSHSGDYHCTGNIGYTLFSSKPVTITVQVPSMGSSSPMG
# T3: human FcγRIIb extracellular domain, C-terminal His-tag (human, UniProt P31994 43-217)
# T3 construct: Soluble extracellular domain expressed in FreeStyle 293 cells; also called FcgRIIb; not shown: His-tag added to the C-terminus
# T3 sequence: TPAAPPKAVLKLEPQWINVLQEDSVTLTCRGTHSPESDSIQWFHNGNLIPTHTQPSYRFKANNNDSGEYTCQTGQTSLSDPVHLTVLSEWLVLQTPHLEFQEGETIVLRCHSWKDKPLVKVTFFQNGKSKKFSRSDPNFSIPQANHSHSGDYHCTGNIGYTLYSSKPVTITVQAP
# Columns and labels:
# [1] = molecular target: T1, human FcγRIIaH extracellular domain, …; test: SPR (BIACORE); KD of SG1 divided by KD of the variant
# Experimental: (§1) The kinetic analysis of interactions between these antibodies and FcγR was carried out using BIACORE® T200 or BIACORE® 4000 (GE Healthcare). HBS-EP+ (GE Healthcare) was used as the running buffer, and the measurement temperature was set to 25° C. A chip produced by immobilizing Protein A. Protein A/G or mouse anti-human IgG kappa light chain (BD Biosciences) onto a Series S Sensor Chip CM4 or CM5 (GE Healthcare) by the amine-coupling method was used. […] After the measurement, the antibody captured on the chip was washed off by allowing reaction with 10 mM glycine-HCl, pH1.5 and 25 mM NaOH so that the chip was regenerated and used repeatedly. The sensorgrams obtained as measurement results were analyzed by the 1:1 Langmuir binding model using the BIACORE® Evaluation Software to calculate the binding rate constant ka (L/mol/s) and dissociation rate constant kd (l/s), and the dissociation constant KD (mol/L) was calculated from these values. […] Regarding such interactions, KD values were calculated using the following 1:1 binding model described in BIACORE® T100 Software Handbook BR1006-48 Edition AE.
# (§2) Furthermore, the substitutions used in Example 29 for improving antibody half-life and reducing binding to rheumatoid factor were introduced into human FcγRIIb-enhanced Fc variants and their affinity against human FcγRs were analyzed (Table 29). In this SPR analysis, all the data were obtained using mouse anti-human IgG kappa light chain for capturing the antibodies of interest.
# [2] = molecular target: T2, human FcγRIIaR extracellular domain, …; test: as above
# Experimental: as §1, §2
# [3] = molecular target: T3, human FcγRIIb extracellular domain, …; test: as above
# Experimental: as §1, §2
# [4] = molecular target: T4, human FcγRIIIaV extracellular domain, C-terminal His-tag (human, UniProt P08637 17-208); test: as above
# T4 construct: Soluble extracellular domain expressed in FreeStyle 293 cells; also called FcgRIIIaV; not shown: His-tag added to the C-terminus
# Experimental: as §1, §2
# [5] = molecular target: T1, human FcγRIIaH extracellular domain, …; test: SPR (BIACORE), antibody captured by mouse anti-human IgG kappa light chain, FcgR extracellular domain as analyte, 25 C
# Experimental: as §1, §2
# [6] = molecular target: T2, human FcγRIIaR extracellular domain, …; test: as above
# Experimental: as §1, §2
# [7] = molecular target: T3, human FcγRIIb extracellular domain, …; test: as above
# Experimental: as §1, §2
# [8] = molecular target: T4, human FcγRIIIaV extracellular domain, …; test: as above
# Experimental: as §1, §2
# T4 sequence (P08637 17-208 F176V): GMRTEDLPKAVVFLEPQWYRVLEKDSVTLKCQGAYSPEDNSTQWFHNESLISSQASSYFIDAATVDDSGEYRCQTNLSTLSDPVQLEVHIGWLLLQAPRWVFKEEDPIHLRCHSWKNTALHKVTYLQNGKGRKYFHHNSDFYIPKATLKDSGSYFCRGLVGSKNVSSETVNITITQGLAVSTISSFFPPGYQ
KD fold for humanFcgRs (SG1 = 1) [1] [fold],KD fold for humanFcgRs (SG1 = 1) [2] [fold],KD fold for humanFcgRs (SG1 = 1) [3] [fold],KD fold for humanFcgRs (SG1 = 1) [4] [fold],Kd [5] [µM],Kd [6] [µM],Kd [7] [µM],Kd [8] [µM],Binder
0.008,0.04,3.9,0.001,120,28,1.2,610,MS103240H795-TT67/M103202L1045-SK1 (antibody) heavy: QVQLVESGGGLVQPGGSLRLSCAVSGIDLSHDDISWVRQAPGKGLEWVSIISYAGSTYYASWAKGRLTISKDTSKNQVVLTMTNMDPVDTATYYCARGVPAYSHGGDLWGQGTLVTVSSASTKGPSVFPLAPSSKSTSGGTAALGCLVKDYFPEPVTVSWNSGALTSGVHTFPAVLQSSGLYSLSSVVTVPSSSLGTQTYICNVNHKPSNTKVDKKVEPKSCDKTHTCPPCPAPELLGGDSVFLFPPKPKDVLMISRTPEVTCVVVDVSHEDPEVKFNWYVDGVEVHNAKTKPREEQYNSTYRVVSVLPVLHRDWLNGKEYKCKVSNKALPKPIEKTISKAKGQRREPQVYTLPPSREEMTKNQVSLTCLVKGFYPSDIAVEWESNGQPENNYKTTPPVLDSDGSFFLYSKLTVDKSRWQQGNVFSCSVLHEALHAHTTRKELSLSP light: DIVMTQSPATLSLSPGERATLSCTTSQSVYHENWLSWFQQKPGQPPKLLIYWASTLAYGVPSRFSGSGSGTDFTLTISSLQPEDAATYYCAGGYGGGRYAFGQGTKVEIKRTVAAPSVFIFPPSDEQLKSGTASVVCLLNNFYPREAKVQWKVDNALQSGNSQESVTEQDSKDSTYSLSSTLTLSKADYEKHKVYACEVTHQGLSSPVTKSFNRGEC
0.005,0.02,4.9,0.001,210,61,0.96,480,"MS103240H795-TT68/M103202L1045-SK1 (antibody, copies: 2 + 2) heavy: QVQLVESGGGLVQPGGSLRLSCAVSGIDLSHDDISWVRQAPGKGLEWVSIISYAGSTYYASWAKGRLTISKDTSKNQVVLTMTNMDPVDTATYYCARGVPAYSHGGDLWGQGTLVTVSSASTKGPSVFPLAPSSKSTSGGTAALGCLVKDYFPEPVTVSWNSGALTSGVHTFPAVLQSSGLYSLSSVVTVPSSSLGTQTYICNVNHKPSNTKVDKKVEPKSCDKTHTCPPCPAPELLGGDSVFLFPPKPKDVLMISRTPEVTCVVVDVSHEDPEVKFNWYVDGVEVHNAKTKPREEQYNSTYRVVSVLPVLHRDWLNGKEYKCKVSNKALPKPIEKTISKAKGQPREPQVYTLPPSREEMTKNQVSLTCLVKGFYPSDIAVEWESNGQPENNYKTTPPVLDSDGSFFLYSKLTVKKSRWQQGNVFSCSVMHEALHAHYTRKELSLSP light: DIVMTQSPATLSLSPGERATLSCTTSQSVYHENWLSWFQQKPGQPPKLLIYWASTLAYGVPSRFSGSGSGTDFTLTISSLQPEDAATYYCAGGYGGGRYAFGQGTKVEIKRTVAAPSVFIFPPSDEQLKSGTASVVCLLNNFYPREAKVQWKVDNALQSGNSQESVTEQDSKDSTYSLSSTLTLSKADYEKHKVYACEVTHQGLSSPVTKSFNRGEC"

# Further lines, the binder ahead of its results:
Binder,KD fold for humanFcgRs (SG1 = 1) [1] [fold],KD fold for humanFcgRs (SG1 = 1) [2] [fold],KD fold for humanFcgRs (SG1 = 1) [3] [fold],KD fold for humanFcgRs (SG1 = 1) [4] [fold],Kd [5] [µM],Kd [6] [µM],Kd [7] [µM],Kd [8] [µM]
"MS103240H795-SG1/M103202L1045-SK1 (antibody, human IgG1, kappa, Parent constant region SG1 (human IgG1-like); also called MS1032LO19-SG1; copies: 2 + 2) heavy: not shown light: DIVMTQSPATLSLSPGERATLSCTTSQSVYHENWLSWFQQKPGQPPKLLIYWASTLAYGVPSRFSGSGSGTDFTLTISSLQPEDAATYYCAGGYGGGRYAFGQGTKVEIKRTVAAPSVFIFPPSDEQLKSGTASVVCLLNNFYPREAKVQWKVDNALQSGNSQESVTEQDSKDSTYSLSSTLTLSKADYEKHKVYACEVTHQGLSSPVTKSFNRGEC",1,1,1,1,0.97,1.2,4.7,0.72
MS103240H795-TT66/M103202L1045-SK1 (antibody) heavy: QVQLVESGGGLVQPGGSLRLSCAVSGIDLSHDDISWVRQAPGKGLEWVSIISYAGSTYYASWAKGRLTISKDTSKNQVVLTMTNMDPVDTATYYCARGVPAYSHGGDLWGQGTLVTVSSASTKGPSVFPLAPSSKSTSGGTAALGCLVKDYFPEPVTVSWNSGALTSGVHTFPAVLQSSGLYSLSSVVTVPSSSLGTQTYICNVNHKPSNTKVDKKVEPKSCDKTHTCPPCPAPELLGGDSVFLFPPKPKDVLMISRTPEVTCVVVDVSHEDPEVKFNWYVDGVEVHNAKTKPREEQYNSTYRVVSVLPVLHRDWLNGKEYKCKVSNKALPKPIEKTISKAKGQRREPQVYTLPPSREEMTKNQVSLTCLVKGFYPSDIAVEWESNGQPENNYKTTPPVLDSDGSFFLYSKLTVDKSRWQQGNVFSCSVMHEALHAHYTRKELSLSP light: DIVMTQSPATLSLSPGERATLSCTTSQSVYHENWLSWFQQKPGQPPKLLIYWASTLAYGVPSRFSGSGSGTDFTLTISSLQPEDAATYYCAGGYGGGRYAFGQGTKVEIKRTVAAPSVFIFPPSDEQLKSGTASVVCLLNNFYPREAKVQWKVDNALQSGNSQESVTEQDSKDSTYSLSSTLTLSKADYEKHKVYACEVTHQGLSSPVTKSFNRGEC,0.007,0.04,4.7,0.001,130,32,1,590
"MS103240H795-TT33/M103202L1045-SK1 (antibody, human IgG1, kappa, copies: 2 + 2) heavy: QVQLVESGGGLVQPGGSLRLSCAVSGIDLSHDDISWVRQAPGKGLEWVSIISYAGSTYYASWAKGRLTISKDTSKNQVVLTMTNMDPVDTATYYCARGVPAYSHGGDLWGQGTLVTVSSASTKGPSVFPLAPSSKSTSGGTAALGCLVKDYFPEPVTVSWNSGALTSGVHTFPAVLQSSGLYSLSSVVTVPSSSLGTQTYICNVNHKPSNTKVDKKVEPKSCDKTHTCPPCPAPEYLGGDSVFLFPPKPKDVLMISRTPEVTCVVIDVSHEDPEVKFNWYVDGVEVHNAKTKPREEQYNSTYRVVSVLPVLHRDWLNGKEYKCKVSNKALPKPIEKTISKAKGQPREPQVYTLPPSREEMTKNQVSLTCLVKGFYPSDIAVEWESNGQPENNYKTTPPVLDSDGSFFLYSKLTVKKSRWQQGNVFSCSVMHEALHNHYTQKSLSLSP light: DIVMTQSPATLSLSPGERATLSCTTSQSVYHENWLSWFQQKPGQPPKLLIYWASTLAYGVPSRFSGSGSGTDFTLTISSLQPEDAATYYCAGGYGGGRYAFGQGTKVEIKRTVAAPSVFIFPPSDEQLKSGTASVVCLLNNFYPREAKVQWKVDNALQSGNSQESVTEQDSKDSTYSLSSTLTLSKADYEKHKVYACEVTHQGLSSPVTKSFNRGEC",0.028,0.05,15.7,0.002,35,23,0.3,400
